According to US20140120109A1 (Regeneron, published 2014):
Substitutions are numbered along the chain they refer to.

Tests used:
[1] = molecular target: T1, mouse DR3, full-length, expressed on HEK293 NFkB-luciferase reporter cells (mouse); assay: cell-based or functional assay
T1 chain: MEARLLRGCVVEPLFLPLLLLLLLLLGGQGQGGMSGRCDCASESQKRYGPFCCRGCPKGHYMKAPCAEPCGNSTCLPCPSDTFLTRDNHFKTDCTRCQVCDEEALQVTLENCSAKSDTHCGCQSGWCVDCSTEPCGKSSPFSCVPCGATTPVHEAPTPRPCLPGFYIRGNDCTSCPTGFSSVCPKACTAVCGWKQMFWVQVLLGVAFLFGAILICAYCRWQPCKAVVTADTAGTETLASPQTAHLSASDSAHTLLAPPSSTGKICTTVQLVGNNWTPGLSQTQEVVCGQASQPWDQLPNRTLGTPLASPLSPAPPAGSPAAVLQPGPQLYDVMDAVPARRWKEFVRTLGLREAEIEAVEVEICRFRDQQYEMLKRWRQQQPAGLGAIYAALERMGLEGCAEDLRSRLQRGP

[2] = molecular target: T2, Fhm, hTL1A(Q167R), soluble, E. coli-expressed, residues 72-251 of SEQ ID NO:246 (human, UniProt O95150 72-251); assay: SPR 25C, mAb captured
T2 construct: with or without N-terminal Met
T2 chain: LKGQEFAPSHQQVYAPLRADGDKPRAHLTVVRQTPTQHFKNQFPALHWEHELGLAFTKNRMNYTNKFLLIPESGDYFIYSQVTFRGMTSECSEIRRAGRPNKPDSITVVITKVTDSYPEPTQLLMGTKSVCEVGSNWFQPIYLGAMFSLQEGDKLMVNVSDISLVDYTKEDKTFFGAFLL
Description: (§1) Measurements were conducted on a T100 BIACORE™ instrument. […] Kinetic association (kₐ) and dissociation (kd) rate constants were determined by fitting the data to a 1:1 binding model using BIAevaluation 4.1 curve fitting software (BIAcore Life Sciences). Molar concentrations of TL1A/Fhm used in the data fitting assumed a monomeric state for TL1A in solution. Binding dissociation equilibrium constants (KD) and dissociative half-lives (t_{1/2}) were calculated from the kinetic rate constants as: KD (M)=kd/kₐ; and t_{1/2} (min)=[In2/(60*kd)].

[3] = molecular target: T3, cynomolgus monkey TL1A, soluble, E. coli-expressed, residues 72-251 of SEQ ID NO:248 (cynomolgus monkey (Macaca fascicularis), UniProt O95150 72-251 (human entry)); assay: SPR 25C, mAb captured
T3 construct: with or without N-terminal Met; also called MfTL1A (E. Coli)
T3 chain: T2 chain with F39L, I78V, R96Q
Description: as §1

[4] = molecular target: T3, cynomolgus monkey TL1A, soluble, E. …; assay: SPR 37C, mAb captured
Description: as §1

[5] = molecular target: T4, mouse TL1A, soluble, E. coli-expressed, residues 76-252 of SEQ ID NO:250 (mouse, UniProt Q5UBV8 76-252); assay: SPR 25C, steady state
T4 construct: with or without N-terminal Met; also called mTL1A (E. Coli)
T4 sequence: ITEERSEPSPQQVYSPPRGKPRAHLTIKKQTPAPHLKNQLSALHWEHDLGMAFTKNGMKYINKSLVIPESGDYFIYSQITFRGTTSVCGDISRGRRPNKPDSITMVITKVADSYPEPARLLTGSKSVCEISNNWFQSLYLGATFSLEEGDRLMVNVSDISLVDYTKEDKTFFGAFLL
Description: as §1, with “Binding dissociation equilibrium constants (KD) and dissociative half-lives (t_{1/2}) were calculated from the kinetic rate constants as: KD (M)=kd/kₐ; and t_{1/2} (min)=[In2/(60*kd)].” left out

[6] = molecular target: T5, human TL1A, soluble, CHO-expressed, residues 72-251 of SEQ ID NO:244 with N-terminal His6-tag (human, UniProt O95150 72-251); assay: ELISA, blocks hTL1A (10 pM) binding hDcR3-Fc
T5 construct: also called hTL1A; hTL1A (CHO)
T5 sequence: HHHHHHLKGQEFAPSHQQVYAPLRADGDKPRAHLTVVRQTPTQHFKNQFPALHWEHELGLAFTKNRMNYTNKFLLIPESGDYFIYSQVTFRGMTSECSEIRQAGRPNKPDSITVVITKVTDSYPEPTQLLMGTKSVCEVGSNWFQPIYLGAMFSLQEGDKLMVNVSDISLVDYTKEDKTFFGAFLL
Description: (§2) The ability of antibodies to block human TL1A binding to its cognate receptors, the DR3 and DcR3 receptors, was measured using a competition sandwich ELISA. In addition, blocking of a human TL1A variant FHM (human TL1A Q167R) and the cynomolgus monkey (Macaca fascicularis) TL1A (MfTL1A) protein binding to the human DR3 or DcR3 receptors was measured in the same manner. Constant amounts of biotinylated human TL1A or FHM (both expressed with a 6-His tag in CHO cells) or biotinylated MfTL1A (expressed in CHO cells) were separately titrated with varying amounts of antibodies. The antibody-protein complexes were incubated in solution (1 hr, 25° C.) and then transferred to microtiter plates coated with human DR3 (hDR3) or human DcR3 (hDcR3) expressed as human IgG1 Fc fusion proteins. After one hour at 25° C. the wells were washed, and bound human or monkey TL1A was detected with streptavidin conjugated with horseradish peroxidase (HRP). Wells were developed with a TMB solution to produce a colorimetric reaction and quenched with aqueous sulfuric acid before reading absorbance at 450 nm on a Perkin-Elmer Victor X5 plate reader. A sigmoidal dose-response curve was fit to the data using the Prism™ data analysis package. […] Both fully human anti-hTL1A mAbs and comparator antibodies, i.e., control mAb1 (an anti-hTL1A antibody with heavy and light chain variable domains having the amino acid sequences corresponding to SEQ ID NOS:21 and 27, respectively, of US 2009/0280116) and control mAb3 (an anti-hTL1A antibody with heavy and light chain variable domains having the amino acid sequences corresponding to SEQ ID NOS:57 and 48, respectively, of US 2009/0280116), were included in the study. NB: No binding under the conditions tested; NT: Not tested. Concentrations of biotinylated soluble ligands: (1) 150 pM; (2) 500 pM; (3) 10 pM; and (4) 50 pM.

[7] = molecular target: T5, human TL1A, soluble, CHO-expressed, …; assay: ELISA, blocks hTL1A (150 pM) binding hDR3-Fc
Description: as §2

[8] = molecular target: T6, cynomolgus monkey TL1A, soluble, CHO-expressed, residues 72-251 of SEQ ID NO:248 with N-terminal His6-tag (cynomolgus monkey (Macaca fascicularis), UniProt O95150 72-251 (human entry)); assay: ELISA, blocks MfTL1A (50 pM) binding hDcR3-Fc
T6 construct: also called MfTL1A; MfTL1A (CHO)
T6 chain: T5 sequence with F45L, I84V
Description: as §2

[9] = molecular target: T6, cynomolgus monkey TL1A, soluble, …; assay: ELISA, blocks MfTL1A (500 pM) binding hDR3-Fc
Description: as §2

[10] = molecular target: T7, Fhm, hTL1A(Q167R), soluble, CHO-expressed, residues 72-251 of SEQ ID NO:246 (human, UniProt O95150 72-251); assay: ELISA, blocks FHM (150 pM) binding hDR3-Fc; blocking of FHM binding to hDR3
T7 construct: also called Fhm (CHO); FHM (CHO)
T7 chain: T5 sequence with Q102R
Description: as §2

B1: full length rat TL1A expressed on HEK293 cells (ligand)
chain: MAEELGLGFGEAVPVEMLPEGCRHRREARTGLAARSKACLALTCCLLSFPILAGLSTLLMTGQLRIPGKDCMFPTVTEERSAPSAQPVYTPSRDKPKAHLTIMRQTPVPHLKNELAALHWENNLGMAFTKNRMNYTNKFLVIPESGDYFIYSQITFRGTTSECGDISRVRRPKKPDSITVVITKVADSYPEPAHLLTGTKSVCEISSNWFQPIYLGAMFSLEEGDRLMVNVSDISLVDYTKEDKTFFGAFLI
[1]
  EC50 (cells), NFkB-luciferase reporter: 9770 cells

B2: H2M1804N (antibody, V domains shown)
VH: QVQLHQWGAGLLKPSETLSLTCAVSGVSFSDYHWAWIRQSPGKGLEWIGDINHRGRTNYNPSLKSRVTISLDTSGNPFSLKLTSVTAADTAVYYCARDFPNWVFDSWGQGILVTVSS
VL: EIVLSQSPGTLSLSPGERATLSCRASQSVSSSFLAWYQQYPGQAPRLLIYGASRRATGIPDRFRGSGSGTDFTLTISRLEPEDFAVYYCQQYGSSPLTFGGGTKVENK
notes: chimeric hybridoma antibody: human variable regions, mouse constant regions (mouse Fc)
[2]
  Kd: 0.192 nM
  t1/2: 1.8 h
[3]
  Kd: 0.176 nM
  t1/2: 2.87 h
[4]
  Kd: 0.218 nM
  t1/2: 1.97 h
[5]
  binding result: no binding (tested: up to 100 nM)
[6]
  IC50: 0.12 nM
[7]
  IC50: 0.046 nM
[8]
  IC50: 0.009 nM
[9]
  IC50: 0.081 nM
[10]
  IC50: 0.102 nM

B3: H2M1818N (antibody, V domains shown)
VH: RLQLVESGGGLVKPGGSLKLSCAASGFTISDYYMSWIRQAPGKGLEWVSYIGGSGSTIYYADSVKGRFTISRDNAKNSLYLQMNSLRAEDTAVYYCAREDADSYYYYGMDVWGQGTTVTVSS
VL: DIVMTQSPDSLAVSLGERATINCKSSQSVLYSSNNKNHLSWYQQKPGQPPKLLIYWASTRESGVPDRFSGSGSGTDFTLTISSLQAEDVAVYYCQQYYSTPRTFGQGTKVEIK
notes: as for B2
[2]
  Kd: 1.08 nM
  t1/2: 0.283 h
[3]
  Kd: 1.84 nM
  t1/2: 0.167 h
[4]
  Kd: 4.1 nM
  t1/2: 0.05 h
[5]
  Kd: 171 nM
[6]
  IC50: 0.396 nM
[7]
  IC50: 0.154 nM
[8]
  IC50: 0.055 nM
[9]
  IC50: 0.239 nM
[10]
  IC50: 0.317 nM

B4: full length mouse TL1A expressed on HEK293 cells (ligand)
chain: MAEELGLGFGEGVPVEVLPEGCRHRPEARAGLAARSKACLALTCCLLSFPILAGLSTLLMAGQLRVPGKDCMLRAITEERSEPSPQQVYSPPRGKPRAHLTIKKQTPAPHLKNQLSALHWEHDLGMAFTKNGMKYINKSLVIPESGDYFIYSQITFRGTTSVCGDISRGRRPNKPDSITMVITKVADSYPEPARLLTGSKSVCEISNNWFQSLYLGATFSLEEGDRLMVNVSDISLVDYTKEDKTFFGAFLL
[1]
  EC50 (cells), NFkB-luciferase reporter: 12400 cells
